In article PMC12724371 (Journal of Virology, 2025):

How the values were obtained:
Test in all cases: BLI
Conditions in all cases: both partners purified
[1] = target: T1, SARS-CoV spike S2 subunit (SARS-CoV, strain  (entry …, UniProt P59594))
T1 construct: source: bought: Sino Biological

[2] = target: T2, SARS-CoV-2 spike S2 subunit (SARS-CoV-2, Wuhan-Hu-1 reference, UniProt P0DTC2)
T2 construct: source: bought: Sino Biological

MERS spike S2 subunit = target: T3, MERS spike S2 subunit (MERS-CoV, strain  (entry: …, UniProt K9N5Q8))
T3 construct: source: bought: Sino Biological
T3 sequence (K9N5Q8 whole entry, looked up): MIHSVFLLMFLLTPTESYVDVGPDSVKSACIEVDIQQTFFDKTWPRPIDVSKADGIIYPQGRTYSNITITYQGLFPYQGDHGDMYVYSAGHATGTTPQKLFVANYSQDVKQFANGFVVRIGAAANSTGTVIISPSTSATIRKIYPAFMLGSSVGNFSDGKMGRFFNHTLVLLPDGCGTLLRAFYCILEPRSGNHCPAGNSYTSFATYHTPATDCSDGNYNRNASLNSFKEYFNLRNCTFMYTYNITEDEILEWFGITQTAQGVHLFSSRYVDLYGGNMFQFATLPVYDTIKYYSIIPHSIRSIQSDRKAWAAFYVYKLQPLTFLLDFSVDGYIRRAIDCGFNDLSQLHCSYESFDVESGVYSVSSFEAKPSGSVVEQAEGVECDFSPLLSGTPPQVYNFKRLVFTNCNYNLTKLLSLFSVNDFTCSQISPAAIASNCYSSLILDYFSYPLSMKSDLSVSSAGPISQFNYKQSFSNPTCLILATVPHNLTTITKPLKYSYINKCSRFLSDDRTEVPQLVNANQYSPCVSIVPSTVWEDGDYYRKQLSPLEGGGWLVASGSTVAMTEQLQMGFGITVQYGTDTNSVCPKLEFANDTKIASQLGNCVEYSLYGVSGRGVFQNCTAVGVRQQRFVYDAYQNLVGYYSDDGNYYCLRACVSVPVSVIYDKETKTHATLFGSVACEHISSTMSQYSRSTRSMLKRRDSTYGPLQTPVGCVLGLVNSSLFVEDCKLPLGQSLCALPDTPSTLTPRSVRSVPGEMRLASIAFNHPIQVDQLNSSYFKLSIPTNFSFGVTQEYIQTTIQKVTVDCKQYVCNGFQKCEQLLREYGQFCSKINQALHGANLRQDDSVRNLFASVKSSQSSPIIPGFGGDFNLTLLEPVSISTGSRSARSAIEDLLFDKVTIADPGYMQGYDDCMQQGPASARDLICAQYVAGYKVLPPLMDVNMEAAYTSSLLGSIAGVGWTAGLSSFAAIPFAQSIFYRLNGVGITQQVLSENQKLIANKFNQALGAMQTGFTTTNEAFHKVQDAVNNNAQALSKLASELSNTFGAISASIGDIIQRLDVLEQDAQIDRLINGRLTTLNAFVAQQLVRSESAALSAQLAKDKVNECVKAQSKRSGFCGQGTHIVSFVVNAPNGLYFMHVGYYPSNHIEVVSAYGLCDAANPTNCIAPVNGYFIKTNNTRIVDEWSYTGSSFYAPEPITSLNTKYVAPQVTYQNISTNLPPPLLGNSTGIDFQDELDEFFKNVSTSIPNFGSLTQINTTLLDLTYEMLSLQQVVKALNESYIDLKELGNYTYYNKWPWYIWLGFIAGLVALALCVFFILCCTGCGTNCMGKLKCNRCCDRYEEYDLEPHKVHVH

[3] = target: SARS-CoV full-length spike protein (SARS-CoV, strain  (entry …, UniProt P59594))
[4] = target: RatG13 full-length spike protein (Bat coronavirus RaTG13, UniProt A0ABF7PLN6)
[5] = target: MERS full-length spike protein (MERS-CoV, strain  (entry: …, UniProt K9N5Q8))
Sequence of MERS full-length spike protein (MERS-CoV, strain  (K9N5Q8 18-1353): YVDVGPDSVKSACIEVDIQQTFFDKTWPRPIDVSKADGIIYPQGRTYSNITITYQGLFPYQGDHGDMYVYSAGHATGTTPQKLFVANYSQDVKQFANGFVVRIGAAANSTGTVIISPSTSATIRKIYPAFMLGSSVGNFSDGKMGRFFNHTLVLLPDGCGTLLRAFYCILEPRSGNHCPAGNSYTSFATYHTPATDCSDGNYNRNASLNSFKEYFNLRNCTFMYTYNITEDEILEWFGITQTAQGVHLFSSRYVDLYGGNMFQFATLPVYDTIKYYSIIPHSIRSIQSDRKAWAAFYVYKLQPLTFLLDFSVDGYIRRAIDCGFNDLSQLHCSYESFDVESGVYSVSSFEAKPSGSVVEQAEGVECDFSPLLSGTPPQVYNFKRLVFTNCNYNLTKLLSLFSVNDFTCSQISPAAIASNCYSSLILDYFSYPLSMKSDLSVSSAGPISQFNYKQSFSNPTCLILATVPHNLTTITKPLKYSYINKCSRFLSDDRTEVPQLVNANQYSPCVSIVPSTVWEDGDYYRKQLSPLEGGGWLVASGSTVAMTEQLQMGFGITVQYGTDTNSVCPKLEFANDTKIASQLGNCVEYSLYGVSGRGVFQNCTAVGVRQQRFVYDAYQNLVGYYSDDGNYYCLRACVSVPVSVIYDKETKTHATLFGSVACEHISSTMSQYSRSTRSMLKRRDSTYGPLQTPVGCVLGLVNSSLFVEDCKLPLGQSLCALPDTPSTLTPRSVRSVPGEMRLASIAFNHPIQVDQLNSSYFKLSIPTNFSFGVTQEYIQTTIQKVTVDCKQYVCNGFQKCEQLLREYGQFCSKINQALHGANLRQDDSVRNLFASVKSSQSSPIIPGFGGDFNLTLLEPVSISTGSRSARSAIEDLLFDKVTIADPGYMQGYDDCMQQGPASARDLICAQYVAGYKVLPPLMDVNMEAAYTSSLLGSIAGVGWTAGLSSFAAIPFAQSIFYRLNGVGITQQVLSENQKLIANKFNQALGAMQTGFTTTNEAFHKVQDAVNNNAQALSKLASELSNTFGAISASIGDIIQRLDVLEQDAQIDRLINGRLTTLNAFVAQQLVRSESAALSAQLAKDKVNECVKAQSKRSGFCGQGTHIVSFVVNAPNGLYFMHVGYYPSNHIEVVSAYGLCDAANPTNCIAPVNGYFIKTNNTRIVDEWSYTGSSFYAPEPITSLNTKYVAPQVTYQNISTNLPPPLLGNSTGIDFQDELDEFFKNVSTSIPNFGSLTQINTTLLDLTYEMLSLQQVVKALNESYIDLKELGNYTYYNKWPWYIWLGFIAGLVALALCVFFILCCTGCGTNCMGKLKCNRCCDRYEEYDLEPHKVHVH

[6] = target: T4, HKU-1 full-length spike protein (HCoV-HKU1, UniProt Q0ZME7)
T4 construct: also called HKU1 SP; HCoV-HKU1 full-length SP; source: bought: Sino Biological

[7] = target: T5, OC-43 full-length spike protein (HCoV-OC43, UniProt P36334)
T5 construct: source: bought: Sino Biological
T5 sequence (P36334 14-1353): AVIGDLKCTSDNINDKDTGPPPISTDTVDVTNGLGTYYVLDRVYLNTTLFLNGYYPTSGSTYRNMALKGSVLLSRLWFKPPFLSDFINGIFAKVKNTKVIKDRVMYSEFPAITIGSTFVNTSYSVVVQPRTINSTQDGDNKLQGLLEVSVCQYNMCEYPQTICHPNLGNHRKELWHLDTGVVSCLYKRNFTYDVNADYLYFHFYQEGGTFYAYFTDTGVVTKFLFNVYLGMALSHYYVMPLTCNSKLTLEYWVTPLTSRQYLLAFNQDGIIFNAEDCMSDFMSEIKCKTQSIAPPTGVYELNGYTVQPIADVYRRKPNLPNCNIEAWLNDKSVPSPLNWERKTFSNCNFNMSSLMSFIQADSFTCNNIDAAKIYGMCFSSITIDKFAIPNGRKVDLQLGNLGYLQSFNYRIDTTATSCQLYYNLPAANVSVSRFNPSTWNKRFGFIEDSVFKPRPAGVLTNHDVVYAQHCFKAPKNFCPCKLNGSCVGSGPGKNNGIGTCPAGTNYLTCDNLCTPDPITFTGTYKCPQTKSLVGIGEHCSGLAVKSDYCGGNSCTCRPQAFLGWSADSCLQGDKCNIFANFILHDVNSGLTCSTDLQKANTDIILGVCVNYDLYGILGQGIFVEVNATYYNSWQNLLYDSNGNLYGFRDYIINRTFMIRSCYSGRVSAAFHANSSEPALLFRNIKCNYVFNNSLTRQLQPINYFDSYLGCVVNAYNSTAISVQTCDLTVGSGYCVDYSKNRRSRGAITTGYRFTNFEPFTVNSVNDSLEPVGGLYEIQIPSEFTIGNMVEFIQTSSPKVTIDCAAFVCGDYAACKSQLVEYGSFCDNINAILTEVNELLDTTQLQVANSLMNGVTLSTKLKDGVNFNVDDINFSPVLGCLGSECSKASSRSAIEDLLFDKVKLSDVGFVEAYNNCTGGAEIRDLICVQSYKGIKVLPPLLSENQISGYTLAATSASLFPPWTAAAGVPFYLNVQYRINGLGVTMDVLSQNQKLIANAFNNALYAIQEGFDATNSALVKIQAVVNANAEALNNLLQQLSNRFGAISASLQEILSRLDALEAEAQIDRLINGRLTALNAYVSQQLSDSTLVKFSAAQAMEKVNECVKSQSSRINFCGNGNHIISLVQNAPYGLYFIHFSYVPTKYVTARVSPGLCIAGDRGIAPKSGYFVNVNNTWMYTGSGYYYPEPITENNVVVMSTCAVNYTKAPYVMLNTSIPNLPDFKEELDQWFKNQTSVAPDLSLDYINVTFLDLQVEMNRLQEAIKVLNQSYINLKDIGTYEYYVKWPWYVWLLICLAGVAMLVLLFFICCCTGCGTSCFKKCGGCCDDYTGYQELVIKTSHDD

Measured: binding result

B1: mAb 1871 IgG1 (wild-type human IgG1 Fc) (antibody, V domains shown)
VH: EVQLVESGGGLVKPGGSLRLSCVASGFSFSIYSMNWVRQAPGKGLEWVSYISSSSSYKYYADSVKGRFSVSRDNAKNSLYLQLNGLRAEDTAVYYCARDGYCPKGVCTYYGMDVWGQGTTVTVSA
VL: EIVMTQSPATLSVSPGERVTLSCRASQSVRSRLAWFQQKPGQAPRLLIYDASIRATGIPARFSGSGSGTEFTLIISSLQSEDFAVYYCQQYDNWPPAYTFGQGTKLEIK
notes: also called ADPT01871; source: HEK-293F, transiently transfected, purified (protein A, SEC Superdex200)
binds: all assays above
